According to patent publication US20200216495A1 (ADRX, published 2020):
Values joined by “and” are separate entries in the source; they are usually repeats but may differ in a detail not shown here. Equal entries are not always repeated. Square brackets hold non-standard residues; d marks the D form. Ends that are not written are not given here.

Each binder was assayed against Ac-VQIINK-NH2 (SEQ ID NO: 23) (N-terminal acetyl (Ac); C-terminal amide (NH2)) (assay: cell-based or functional assay).

Binder | VQIINK Inhibition IC50
[dF][dH][dI][dR][dI][dR][dH][dW] [fhirirhw] | 1.1 µm
[dF][dK][dL][dK][dL][dW][dW][dF] [fklklwwf] | 1.15 µm
[dF][dK][dL][dK][dL][dW][dW] [fklklww] | 1.3 µm
[dF][dH][dI][dH][dI][dK][dF][dH] [fhihikfh] | 1.16 µm
[dF][dK][dI][dR][dI][dK][dW][dH] [fkirikwh] | 1.3 µm
[dF][dE][dL][dH][dI][dK][dW][dH] [felhikwh] | 1.29 µm
[dF][dE][dI][dR][dL][dW][dH][dH] [feirlwhh] | 1.17 µm
[dF][dE][dL][dK][dL][dR][dW][dH] [felklrwh] | 1.03 µm
[dF][dR][dL][dK][dV][dR][dW][dF] [frlkvrwf] | 1.26 µm and 2.57 µm
[dF][dK][dL][dK][dL][dR][dW] [fklklrw] | 1.2 µm

Other lines, results leading:

VQIINK Inhibition IC50 | Binder
1.37 µm | [dW][dR][dL][dK][dV][dR][dW][dL] [wrlkvrwl]
1.25 µm | [dW][dL][dR][dV][dQ][dV][dK][dL][dW] [wlrvqvklw]
1.38 µm | [dW][dR][dL][dN][dV][dN][dW] [wrlnvnw]
1.29 µm | [dW][dK][dV][dN][dV][dR][dL][dW] [wkvnvrlw]
1.35 µm | [dW][dR][dF][dH][dI][dH][dF][dY] [wrfhihfy]
0.97 µm | [dW][dQ][dL][dK][dV][dR][dW] [wqlkvrw]
1.21 µm | [dR][dL][dK][dV][dR][dW][dW][dW] [rlkvrwww]
1.38 µm | [dL][dE][dF][dE][dL][dK][dY][dW] [lefelkyw]
1.24 µm | [dL][dK][dI][dR][dI][dR][dF][dH] [lkirirfh]
1.15 µm | [dL][dE][dI][dK][dI][dR][dH][dW] [leikirhw]
1.08 µm | [dW][dL][dR][dV][dQ][dV][dK][dW] [wlrvqvkw]
1.05 µm | [dL][dK][dI][dR][dI][dE][dY] [lkiriey]
1.34 µm | [dW][dR][dL][dR][dI][dW][dW] [wrlriww]
1.2 µm | [dW][dR][dI][dW][dI][dR][dY][dW] [wriwiryw]
